Laboratory results as given in patent US20240182909, “Checkpoint Aptamers as Therapeutics for Cancer Treatment” (Ayass Bioscience LLC, published 2024).

Tests used:
Conditions in all cases: label: biotin
PD-1 [1] = target: T1, PD-1 (UniProt Q15116 Q15116:25-170); test: competition; PD-1 as soluble competitor; called R2-25 in figure legend
Experimental: (§1) FIGS. 3A, 3B, and 3C show the assessment of competitive specificity of CTLA4 aptamers, R2-13, R2-25, R2-63, R2-81, R3-20, and R3-56 to CTLA4 protein in presence of CTLA4, NKG2A, and PD-1 proteins. ELISA-based competition assay for the specificity of the binding of CTLA4 aptamers, R2-13, R2-25, R2-63, R2-81, R3-20, and R3-56. CTLA4 protein (5.0 ug/mL) was immobilized on a MaxiSorp plate. Biotinylated CTLA4 aptamers on 5.0 uM concentration were added in the presence of different concentrations of CTLA4, PD-1, or NKG2A proteins, respectively. The bound aptamer was detected using Streptavidin-HRP and assessed by ELISA. The absorbance of each well was monitored at 450 nm on an automatic microplate reader. The percent inhibition was calculated using the formula, Percent inhibition=[1−(Ainhibitor/Auninhibitor)]×100.

NKG2A [2] = target: T2, NKG2A (UniProt P26715 P26715:94-233); test: competition; NKG2A as soluble competitor for aptamer binding to immobilised CTLA4
T2 sequence (P26715 94-233, one chain of several): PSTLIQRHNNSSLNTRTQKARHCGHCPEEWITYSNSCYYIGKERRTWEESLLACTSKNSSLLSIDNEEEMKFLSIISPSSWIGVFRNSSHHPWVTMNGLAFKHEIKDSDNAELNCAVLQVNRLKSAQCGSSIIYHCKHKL
Experimental: as §1

[3] = target: T3, CTLA4 (cytotoxic T-lymphocyte associated protein 4) (UniProt P16410 P16410:36-161); test: ELONA; called R2-25 in figure legend; 5.0 uM biotinylated aptamer on immobilised CTLA4, competed with soluble protein
T3 sequence (P16410 36-161, one chain of several): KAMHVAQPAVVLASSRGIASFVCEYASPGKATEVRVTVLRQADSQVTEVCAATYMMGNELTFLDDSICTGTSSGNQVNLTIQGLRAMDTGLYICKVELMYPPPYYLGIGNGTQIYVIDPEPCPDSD
Experimental: as §1

[4] = target: T3, CTLA4 (cytotoxic T-lymphocyte …); test: ELONA; 5.0 uM biotinylated aptamer on immobilised CTLA4 (5.0 ug/mL), competed with soluble protein
Experimental: as §1

PD-1 [5] = target: T1, PD-1; test: competition; PD-1 as soluble competitor
Experimental: as §1

PD-1 [6] = target: T1, PD-1; test: competition; PD-1 as soluble competitor for aptamer binding to immobilised CTLA4
Experimental: as §1

[7] = target: T3, CTLA4 (cytotoxic T-lymphocyte …); test: ELONA; direct and competitive ELISA; 100-fold excess unlabelled aptamer as competitor
NKG2A [8] = target: T2, NKG2A; test: as above
Experimental: FIGS. 2A and 2B show aptamer, R2-13, specific binding to CTLA4 and NKG2A is determined by Direct and Competitive ELISA assay. ELISA-based competition assay for the binding of the CTLA4 aptamer, R2-13, to CTLA4 protein and to NKG2A protein. CTLA4 protein and NKG2A protein were immobilized on a MaxiSorp plate and biotinylated R2-13 on different concentrations were added in the absence and presence of 100-fold excess of non-biotinylated respective R2-13. The bound aptamer was detected using Streptavidin-HRP and assessed by ELISA. CTLA4 protein was immobilized on a MaxiSorp plate and biotinylated R2-13 on different concentrations were added in the absence and presence of 100-fold excess of non-biotinylated respective R2-13. The bound aptamer was assessed by ELISA.

[9] = target: Bovine serum albumin (BSA) (Bos taurus, UniProt P02769 P02769:25-607); test: ELONA; BSA-coated plate
Chain of Bovine serum albumin (BSA) (P02769 25-607, one chain of several): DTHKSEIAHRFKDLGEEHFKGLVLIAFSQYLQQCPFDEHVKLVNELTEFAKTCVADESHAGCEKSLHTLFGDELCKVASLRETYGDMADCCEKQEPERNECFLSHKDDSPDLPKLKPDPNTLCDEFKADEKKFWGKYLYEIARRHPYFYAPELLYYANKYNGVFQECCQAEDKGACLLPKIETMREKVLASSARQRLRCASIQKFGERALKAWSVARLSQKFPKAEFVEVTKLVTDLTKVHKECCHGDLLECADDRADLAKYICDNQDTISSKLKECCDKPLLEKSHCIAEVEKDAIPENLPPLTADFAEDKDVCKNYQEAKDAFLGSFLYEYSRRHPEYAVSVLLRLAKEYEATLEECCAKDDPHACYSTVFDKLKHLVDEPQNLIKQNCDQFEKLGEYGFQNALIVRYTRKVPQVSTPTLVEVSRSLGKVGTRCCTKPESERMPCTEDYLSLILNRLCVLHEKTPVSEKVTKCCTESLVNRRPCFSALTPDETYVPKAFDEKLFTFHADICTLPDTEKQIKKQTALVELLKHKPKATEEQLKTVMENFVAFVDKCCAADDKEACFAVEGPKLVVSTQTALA

T1 sequence (Q15116 25-170, one chain of several): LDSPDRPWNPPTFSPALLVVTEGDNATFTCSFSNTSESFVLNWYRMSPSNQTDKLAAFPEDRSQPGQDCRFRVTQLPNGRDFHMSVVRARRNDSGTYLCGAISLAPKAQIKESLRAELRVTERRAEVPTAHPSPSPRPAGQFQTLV

| Binder | binding result (PD-1 [1]) | binding result (NKG2A [2]) | binding result [3] | binding result [4] | binding result (PD-1 [5]) | binding result (PD-1 [6]) | binding result [7] | binding result (NKG2A [8]) | binding result [9] |
| --- | --- | --- | --- | --- | --- | --- | --- | --- | --- |
| GACTTCGCGGAGGTAAACTGCACGGGGGTGCCGCGAAGTC (ssDNA, deoxyuridine (dU) in place of every T) [ctla4_R3_25] | no binding | binds | binds | – | – | – | – | – | – |
| ACTTACAACTGCGCACGCGGGACCTCCGAGAGTTGTAAGT (ssDNA, deoxyuridine (dU) in place of every T) [ctla4_R2_81] | – | binds | – | binds | no binding | – | – | – | – |
| ACACTTTTCCCCCACCTGATCCTCAGTTCCGGAAAAGTGT (ssDNA, deoxyuridine (dU) in place of every T) [ctla4_R2_13] | – | – | – | – | – | no binding | binds | binds | no binding |
| GACCTGCCGGCGGAGCTGCGTCCCGCTGCACCGGCAGGTC (ssDNA, deoxyuridine (dU) in place of every T) [ctla4_R3_20] | – | binds | – | binds | no binding | – | – | – | – |
| TTGTTGCAGGCGACGTGCGTGGGCGCACGGCCTGCAACAA (ssDNA, deoxyuridine (dU) in place of every T) [ctla4_R3_56] | – | binds | – | binds | no binding | – | – | – | – |
